2 substances from paper PMC3585134 can be followed below.

The target in experiment [1] is AIP56^1–285 (N-terminal domain of AIP56, apoptosis-inducing protein of 56 kDa) (Photobacterium damselae piscicida). Description: reducing and non-reducing SDS-PAGE; purified AIP56^1–285 and AIP56^286–497, each alone, run with and without DTT (Figure S5A); dimers held by a disulphide formed on oxidation.
The target is the same in experiment [2]. Description: reducing and non-reducing SDS-PAGE; reconstituted AIP56: AIP56^1–285 and AIP56^286–497 mixed in equimolar amounts in 8 M urea, 1 mM DTT, refolded by extensive dialysis against sbPBS; run with and without DTT (Figure S6A).
Experiment [3] concerns the target AIP56^286–497 (C-terminal domain of AIP56, apoptosis-inducing protein of 56 kDa) (Photobacterium damselae piscicida). Nature of the experiment: reducing and non-reducing SDS-PAGE; purified AIP56^1–285 and AIP56^286–497, each alone, run with and without DTT (Figure S5A); dimers held by a disulphide formed on oxidation.
Experiment [4] has the same target. Nature of the experiment: reducing and non-reducing SDS-PAGE; reconstituted AIP56: AIP56^1–285 and AIP56^286–497 mixed in equimolar amounts in 8 M urea, 1 mM DTT, refolded by extensive dialysis against sbPBS; run with and without DTT (Figure S6A).

In general, stoichiometry N refers to the number of molecules, sites or subunits per partner or assembly.

In the case of “AIP56^1–285 (N-terminal domain of AIP56, apoptosis-inducing protein of 56 kDa) (domain or fragment)”, the stoichiometry N in experiment [1] and in experiment [2] was 2 in each case.
Regarding “AIP56^286–497 (C-terminal domain of AIP56, apoptosis-inducing protein of 56 kDa) (domain or fragment)”, the stoichiometry N in experiment [3] and in experiment [4] was 2 each time.
